Our source for the MFB-F11 Smad-responsive reporter cells, secreted alkaline phosphatase (405 nm), log dilutions starting values is PMC8516079.

The assay concerns the target TGF-β receptors on MFB-F11 cells. Conditions: scale: fold less potent than HEK293T-expressed TGM1.

“algal-expressed TGM1 (Heligmosomoides polygyrus TGF-β mimic, mature 5-domain, FLAG-tagged) (ligand)” had an MFB-F11 Smad-responsive reporter cells, secreted alkaline phosphatase (405 nm), log dilutions starting at 100 ng/mL, 24 h; potency against HEK293T-expressed TGM1 of 10.
